Data reported in the nanobody polyreactivity screen of Harvey et al. (2022).

Assay: yeast display, Sf9 membrane polyspecificity reagent, FACS + sequencing; frameworks hold sequencing errors
Summary of the method: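 After 36–48 hours of galactose induction, yeast (Saccharomyces cerevisiae BJ5465) displaying a synthetic nanobody library were stained at 4 °C for 1 hour with 10% biotinylated, detergent-solubilized Sf9 membrane reagent. Streptavidin microbeads enriched the stained cells before FACS sorting into low and high (top ~1%) gates on anti-HA and streptavidin fluorescence. Each clone's polyreactivity label reflects its gate of origin.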

Sequence: QVQLVESGGGLVQAGGSLRLSCAASGSTFDSYAMGWYRQDPGKERELFAAITYSGGRTYYADSVKGRFTISRDNAKNTVYLQMNSLKPEDTAVYYCAATGVFRDEYWGQGTQVTVSS
- polyreactivity (PSR sort gate): low polyreactivity

Sequence: QVQLVESGGALVQAGGSLRVSCAASGFIFYGYAMGWYRQAPGKERELVAAISSGGGRTYYADSVKGRFTISRDNAKNTVYLQMNSLKPEDTAVYYCAAKVYYYTGGGGEDYWGQGTQVTVSS
- polyreactivity (PSR sort gate): low polyreactivity

Sequence: QVQHVESGGGLLQAGGSLRLSCAASGRTFGRYAMGWYRPAPGKERELVADIDYGGGSTYYADSVKGRFTISRDNAKNTFYLQMNSLKPEDTAVYYCNAGRDIGWGYHMDYWGQGTQVTVSS
- polyreactivity (PSR sort gate): high polyreactivity

Sequence: QVQLVESGGGLVQAGGSLRLSCAASGSIFGFNAMGWYRQAPGIERELVAAINNGGSTNYADSVKGRFTISRENANNTVYLQMNSLKPEDTADYYCAARLNYIRRGYWGQGTQVTVSS
- polyreactivity (PSR sort gate): high polyreactivity

Sequence: QVQLVESGGGLVQAGGSLRLSCAASGFNYSNAMGWYRQAPGKERELVAAITSRGGSTYYADSVKGRFTISRDNAKNTVYLQMNSLKPEDTAVYYCATKVWTRFIYYYWGQGTQVTVSS
- polyreactivity (PSR sort gate): high polyreactivity

Sequence: QVQLVESGGGLVQSGGSLRLSCAASGITFFFNAMGWYRQAPGKERELVAPITSGGGSTYYADSVKGRFTISRENAKNTVYLQMNSLKPEDTAVYYCAAEWSYGGMDYWGQGTQVTVSS
- polyreactivity (PSR sort gate): low polyreactivity

Sequence: QVQLVESGGGLVQAGGSLRLSCAASGSIFGYYTMGWYRQAPGKERELVAAITSGGSTNYADSVKGRFTISRDNAKNTVYLQMNSLKPEETAVYYCAKVSYYTWRYDYWGQGTQVTVSS
- polyreactivity (PSR sort gate): low polyreactivity

Sequence: QVQLVESGGGLVQAGGSLRLSCAASGNIFARYAMGWYRQATGKERDLVSAISRSGGSTYYADSVKGRFTISRDNAKNSVYLQMKCLKPEDTAVYYCNAKSYGVLYWFAYDYWGQGTQVTVSS
- polyreactivity (PSR sort gate): high polyreactivity

Sequence: QVQLVESVGGLVQAGGSLRLSCAASGRTFGRYAMGWYRQAPGKERELVAGISRSGDSTHYADSVKGRFTISRDNAKNTVYLQMNSLKPEDTAVYYCNKETPTIGARKYEYWGQGTQVTVSS
- polyreactivity (PSR sort gate): low polyreactivity

Sequence: QVQLVESVGGLVQAGGSLRLSCAASGRTIVSNAMGWYRQAPGKERELVAAITRGSRTYYADSVKGRFTISRDNAKNTVYLQMNSLKPEDTAVYYCNARHVRYPFTGNYWGQGTQVTVSS
- polyreactivity (PSR sort gate): high polyreactivity

Sequence: QVQLVESGGGLVQAGGSLRLSCAASGRIFYNYAMGWYRQAPGKERELVAAITGGASTYADSVKGRFTISRDNAKNTVYLQMNRLKPEDTAVYYCAVDYYTYSLASGRTRMDYWGQGTQVTVSS
- polyreactivity (PSR sort gate): high polyreactivity

Sequence: QVQLVESGGGLVQAGGSLRLSCAASGRIFHYNAMGWYRQAPGKERELVAAITRRGTSTYYADSVKGRFTISRDNAKNTVYLQMNSLKPEDTAVYYCATDYGFKDSVVDFDYWGQGTQVTVSS
- polyreactivity (PSR sort gate): low polyreactivity

Sequence: QVQLVESGGGLVQAGGSLRLSCAASGRTFYGYAIGRYIQAPGNERELVAAISRRGGSTNYADSVKGRFTISRDNAKNTVFLQMNSLKPEDTAVYYCNANYYRTHYDYWGQGTQVTVSS
- polyreactivity (PSR sort gate): high polyreactivity

Sequence: QVQLVESGGGLVQAGGSLRLSCAASGSTFGAYAMGWYRQAPGKEREFVAGISVRGGSTYYADSVKGRFTISRDNAKNTVYLQMNSLKPEDTAVYYCAARRVDTRVHVRYRYYYWGQGTQVTVSS
- polyreactivity (PSR sort gate): high polyreactivity

Sequence: QVQLVESGGGLVQAGGSLRLSCAASGITISPNAMGWYRQAPGKERELVAAIDWSGDRTYYADSVKGRFTISRDNAKNTVYLQINSLKPEDTAVYYCNVVRRSPGDYSYYYWGQGTQVTVSS
- polyreactivity (PSR sort gate): low polyreactivity

Sequence: QVQLVESGGGLVQAGGSLRLSCAASGYIFLRNAKGWSRQAPGKERELVAAIRRTGGSTYYADSVKGRFTISRDIAKNTVYLDMNSLKPEDTAVYYCAKRSYTGYEYLGQGTQVTVSS
- polyreactivity (PSR sort gate): low polyreactivity

Sequence: QVQLVESGGGLVQAGGSLRISCAASGNILFSYAMGWYRQAPGKERELVAAISRSGGSTYYADSVKGRFTISRDNAKNTVYLQMNSLKPEDTAVYYCNTYSIAYYSPGYDYWGQGTQVTVSS
- polyreactivity (PSR sort gate): high polyreactivity
